One data set concerns the target T1, B. subtilis YqxM protein.
T1 chain: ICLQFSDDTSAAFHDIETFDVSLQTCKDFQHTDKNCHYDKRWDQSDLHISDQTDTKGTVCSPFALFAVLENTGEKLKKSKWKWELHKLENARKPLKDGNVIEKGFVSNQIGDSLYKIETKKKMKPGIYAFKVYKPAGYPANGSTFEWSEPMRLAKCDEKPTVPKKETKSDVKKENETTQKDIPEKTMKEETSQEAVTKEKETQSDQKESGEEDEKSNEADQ

In data set [1] the target is T2, immature TasA protein (pro-TasA), 34 kDa.
T2 chain: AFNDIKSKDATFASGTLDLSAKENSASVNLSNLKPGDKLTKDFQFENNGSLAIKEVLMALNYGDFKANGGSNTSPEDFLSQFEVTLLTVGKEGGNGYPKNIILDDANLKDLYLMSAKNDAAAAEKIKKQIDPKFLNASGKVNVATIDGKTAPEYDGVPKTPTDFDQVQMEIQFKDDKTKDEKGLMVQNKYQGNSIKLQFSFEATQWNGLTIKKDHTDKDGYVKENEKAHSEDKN

B1: B. subtilis SipW protein (signal peptidase) (protein)
chain: MKLISNILYVIIFTLIIVLTLVVISTRSSGGEPAVFGYTLKSVLSGSMEPEFNTGSLILVKEITDVKELQKGDVITFMQDANTAVTHRIVDITKQGDHLLFKTKGDNNAAADSAPVSDENVRAQYTGFQLPYAGYMLHFASQPIGTAVLLIVPGVMLLVYAFVTISSAIREIERKTKALETDTKDSTMST
For B1, in the data set with B. subtilis YqxM protein, the “Western blot of YqxM in concentrated E. coli culture supernatants” value is “when both YqxM and SipW were produced, YqxM was abundant in the culture supernatant and migrated as a smaller 31 kD species”; the “YqxM associated with the spore, with sipW deleted or under pSpac control” value is listed as “deletion of sipW resulted in no measurable amount of YqxM associated with the spore”. Further, in data set [1], the “Western blot for mature TasA in a strain where the neo promoter drives sipW and TasA and YqxM is disrupted” value was “A band corresponding to mature TasA was detected in extracts of spores and in both the culture supernatants and lysates of sporangia and vegetative cells. No protein of larger molecular weight that could correspond to immature TasA was detected”; the “Western blot of TasA size in sipW deletion strains (34 kDa immature against 31 kDa mature)” value is “a 34 kDa band was detected in both sporangial lysates and vegetative cells”.

Source of the values: patent publication US20020115184.
